Reference: IntAct's records for PubMed 25814554

B1: Pleckstrin homology domain-containing family S member 1 (Homo sapiens), Q5SXH7-1 (parent)
chain: MAGGKQFTFSYENEVCKQDYFIKSPPSQLFSSVTSWKKRFFILSKAGEKSFSLSYYKDHHHRGSIEIDQNSSVEVGISSQEKMQSVQKMFKCHPDEVMSIRTTNREYFLIGHDREKIKDWVSFMSSFRQDIKATQQNTEEELSLGNKRTLFYSSPLLGPSSTSEAVGSSSPRNGLQDKHLMEQSSPGFRQTHLQDLSEATQDVKEENHYLTPRSVLLELDNIIASSDSGESIETDGPDQVSGRIECHYEPMESYFFKETSHESVDSSKEEPQTLPETQDGDLHLQEQGSGIDWCLSPADVEAQTTNDQKGSASLTVVQLSILINNIPDESQVEKLNVFLSPPDVINYLALTEATGRICVSQWEGPPRLGCIFCHGDHLLAVNDLKPQSLEEVSLFLTRSIQKEKLKLTIGRIPNSETFHAASCMCPSKCQSAAPSQLDKPRLNRAPKRSPAIKKSQQKGARE
B2: Tetraspanin-2 (Homo sapiens), O60636 (parent)
chain: MGRFRGGLRCIKYLLLGFNLLFWLAGSAVIAFGLWFRFGGAIKELSSEDKSPEYFYVGLYVLVGAGALMMAVGFFGCCGAMRESQCVLGSFFTCLLVIFAAEVTTGVFAFIGKGVAIRHVQTMYEEAYNDYLKDRGKGNGTLITFHSTFQCCGKESSEQVQPTCPKELLGHKNCIDEIETIISVKLQLIGIVGIGIAGLTIFGMIFSMVLCCAIRNSRDVI

Variants of: B1
Conditions: with p55g_human PIK3R3, Q92569

effect of a mutation on the interaction | Variant
disrupting interaction | D68F

Variants of: B2
Conditions: with grb2_human GRB2, P62993

effect of a mutation on the interaction | Variant
disrupting interaction | MGRFRGGLRCIKYLLLGFNLLFWLAGSAVIAFGLWFRFGGAIKELSSEDKSPEYFYVGLYVLVGAGALMMAVGFFGCCGAMRESQCVLGSFFTCLLVIFAAEVTTGVFAFIGKGVAIRHVQTMFEEAYNDYLKDRGKGNGTLITFHSTFQCCGKESSEQVQPTCPKELLGHKNCIDEIETIISVKLQLIGIVGIGIAGLTIFGMIFSMVLCCAIRNSRDVI [Y124F]

Variants of: B2
Conditions: with p55g_human PIK3R3, Q92569

effect of a mutation on the interaction | Variant
disrupting interaction | MGRFRGGLRCIKYLLLGFNLLFWLAGSAVIAFGLWFRFGGAIKELSSEDKSPEYFYVGLYVLVGAGALMMAVGFFGCCGAMRESQCVLGSFFTCLLVIFAAEVTTGVFAFIGKGVAIRHVQTMFEEAYNDYLKDRGKGNGTLITFHSTFQCCGKESSEQVQPTCPKELLGHKNCIDEIETIISVKLQLIGIVGIGIAGLTIFGMIFSMVLCCAIRNSRDVI [Y124F]
